We go through five proteins from article PMC12293770, “Mechanistic Insights into the Bornyl Diphosphate Synthase from Lavandula angustifolia” (Current Issues in Molecular Biology, 2025).

Assay in all cases: GC-MS of hexane phase, Hanes-Woolf plot
What all share (type): biochemical, Lavandula angustifolia
Common to all, as to settings: 25 mM Tris-HCl pH 7.5, 10 mM MgCl2, 1 mM MnCl2, 30 °C, 2 h

Substrate in series [1]: CC(C)=CCC/C(C)=C/COP(=O)(O)OP(=O)(O)O
From the text: GC-MS of hexane phase, Hanes-Woolf plot on ∆1–58

Substrate in series [2]: CC(C)=CCC/C(C)=C/COP(=O)(O)OP(=O)(O)O
From the text: GC-MS of hexane phase, Hanes-Woolf plot on ∆59–74
The source holds these as a separate data set.

Substrate in series [3]: CC(C)=CCC/C(C)=C/COP(=O)(O)OP(=O)(O)O
From the text: GC-MS of hexane phase, Hanes-Woolf plot on ∆1–74
The source holds these as a separate data set.

Substrate in series [4]: CC(C)=CCC/C(C)=C/COP(=O)(O)OP(=O)(O)O
An excerpt:
GC-MS of hexane phase, Hanes-Woolf plot on LaBPPS (WT)
This is another data set of the same source.

Substrate in series [5]: CC(C)=CCC/C(C)=C/COP(=O)(O)OP(=O)(O)O
From the text:
GC-MS of hexane phase, Hanes-Woolf plot on ∆578–602
The source holds these as a separate data set.

B1: ∆1–58 (Lavandula angustifolia subsp. angustifolia) (protein)
chain: LDSTRRSGMYKPTLWDFDRIQSLNSVYTEEKYSTRACDLIQQVKKLLEESDWFRQLQLIDDLQRLGLSYRFDDEINLILNTIYFEKKFCEKEMDLYSTSLAFRLLRQHGLKVSQEVFDCFKNEEGDFEARLGDETNGILEMCEASFLATEGEETLELARLFTTNILQKKLDDERNELLIMDDYLRTLIRHSLDLPLYWRVQRPSARWFIEAYATRSDMNPIMLELAKLDFNIVQATHQEELKQVSRWWKESRLAEKLPFARDRVVENYLWNRGMLFPPQYGYPRIMNAKLFVLITVLDDIYDVYGTLEETQLFTNLITRWDVEAIGQLPEYMRICYMAIDNNINELAYEVLKQHGLLIIQDLRKFWADLCVAYGKEAEWYYTGYKPTLEEYLEVAWVSISAHLILGYMFFLTSNPIEKEASQSLSNYHNIIRNSAMVLRLADDLGTSPYEMQRGDVPKAVECYMNENGASTEEAREYVKHLLREVWKETNGERFKESPFTPSFMRICADLGRMAQFMYQHGDGHGIRNLQMEDRIQSLIFEPIV
notes: N-terminal truncation, residues 1-58 deleted; E. coli, Talon resin, thrombin-cleaved
As usually defined, the Km is the substrate concentration at which the rate is half of its maximum. The kcat is the number of substrate molecules converted per active site and unit of time at saturation. As for B1, in series [1], the Km came out at 28.12 ± 1.75 µM and the kcat is 0.113 ± 0.00583 s⁻¹.

B2: ∆59–74 (Lavandula angustifolia subsp. angustifolia; DEL59-74) (protein)
chain: MTAARSFMAINSNMTTDHLHKFGKKNLEFGQGYSCNNASPMRLRPCCSLKLSTNAESQFDRIQSLNSVYTEEKYSTRACDLIQQVKKLLEESDWFRQLQLIDDLQRLGLSYRFDDEINLILNTIYFEKKFCEKEMDLYSTSLAFRLLRQHGLKVSQEVFDCFKNEEGDFEARLGDETNGILEMCEASFLATEGEETLELARLFTTNILQKKLDDERNELLIMDDYLRTLIRHSLDLPLYWRVQRPSARWFIEAYATRSDMNPIMLELAKLDFNIVQATHQEELKQVSRWWKESRLAEKLPFARDRVVENYLWNRGMLFPPQYGYPRIMNAKLFVLITVLDDIYDVYGTLEETQLFTNLITRWDVEAIGQLPEYMRICYMAIDNNINELAYEVLKQHGLLIIQDLRKFWADLCVAYGKEAEWYYTGYKPTLEEYLEVAWVSISAHLILGYMFFLTSNPIEKEASQSLSNYHNIIRNSAMVLRLADDLGTSPYEMQRGDVPKAVECYMNENGASTEEAREYVKHLLREVWKETNGERFKESPFTPSFMRICADLGRMAQFMYQHGDGHGIRNLQMEDRIQSLIFEPIV
notes: internal deletion of residues 59-74; E. coli, Talon resin, thrombin-cleaved
With B2, in series [2], the Km turned out to be 38.49 ± 2.58 µM and the kcat is 0.0562 ± 0.007 s⁻¹.

B3: ∆1–74 (Lavandula angustifolia subsp. angustifolia) (protein)
chain: FDRIQSLNSVYTEEKYSTRACDLIQQVKKLLEESDWFRQLQLIDDLQRLGLSYRFDDEINLILNTIYFEKKFCEKEMDLYSTSLAFRLLRQHGLKVSQEVFDCFKNEEGDFEARLGDETNGILEMCEASFLATEGEETLELARLFTTNILQKKLDDERNELLIMDDYLRTLIRHSLDLPLYWRVQRPSARWFIEAYATRSDMNPIMLELAKLDFNIVQATHQEELKQVSRWWKESRLAEKLPFARDRVVENYLWNRGMLFPPQYGYPRIMNAKLFVLITVLDDIYDVYGTLEETQLFTNLITRWDVEAIGQLPEYMRICYMAIDNNINELAYEVLKQHGLLIIQDLRKFWADLCVAYGKEAEWYYTGYKPTLEEYLEVAWVSISAHLILGYMFFLTSNPIEKEASQSLSNYHNIIRNSAMVLRLADDLGTSPYEMQRGDVPKAVECYMNENGASTEEAREYVKHLLREVWKETNGERFKESPFTPSFMRICADLGRMAQFMYQHGDGHGIRNLQMEDRIQSLIFEPIV
notes: N-terminal truncation, residues 1-74 deleted; E. coli, Talon resin, thrombin-cleaved
As for B3, in series [3], the Km came out at 41.72 ± 2.15 µM and the kcat was determined as 0.0532 ± 0.002 s⁻¹.

B4: LaBPPS (WT) (Lavandula angustifolia subsp. angustifolia) (protein)
chain: MTAARSFMAINSNMTTDHLHKFGKKNLEFGQGYSCNNASPMRLRPCCSLKLSTNAESQLDSTRRSGMYKPTLWDFDRIQSLNSVYTEEKYSTRACDLIQQVKKLLEESDWFRQLQLIDDLQRLGLSYRFDDEINLILNTIYFEKKFCEKEMDLYSTSLAFRLLRQHGLKVSQEVFDCFKNEEGDFEARLGDETNGILEMCEASFLATEGEETLELARLFTTNILQKKLDDERNELLIMDDYLRTLIRHSLDLPLYWRVQRPSARWFIEAYATRSDMNPIMLELAKLDFNIVQATHQEELKQVSRWWKESRLAEKLPFARDRVVENYLWNRGMLFPPQYGYPRIMNAKLFVLITVLDDIYDVYGTLEETQLFTNLITRWDVEAIGQLPEYMRICYMAIDNNINELAYEVLKQHGLLIIQDLRKFWADLCVAYGKEAEWYYTGYKPTLEEYLEVAWVSISAHLILGYMFFLTSNPIEKEASQSLSNYHNIIRNSAMVLRLADDLGTSPYEMQRGDVPKAVECYMNENGASTEEAREYVKHLLREVWKETNGERFKESPFTPSFMRICADLGRMAQFMYQHGDGHGIRNLQMEDRIQSLIFEPIV
notes: full-length, codon-optimised gene, pHXGWA, E. coli Rosetta (DE3) pLysS, Talon resin, thrombin-cleaved; monomer by DLS
With B4, in series [4], the Km was determined as 29.37 ± 1.21 µM and the kcat came to 0.104 ± 0.00783 s⁻¹.

B5: ∆578–602 (Lavandula angustifolia subsp. angustifolia) (protein)
chain: MTAARSFMAINSNMTTDHLHKFGKKNLEFGQGYSCNNASPMRLRPCCSLKLSTNAESQLDSTRRSGMYKPTLWDFDRIQSLNSVYTEEKYSTRACDLIQQVKKLLEESDWFRQLQLIDDLQRLGLSYRFDDEINLILNTIYFEKKFCEKEMDLYSTSLAFRLLRQHGLKVSQEVFDCFKNEEGDFEARLGDETNGILEMCEASFLATEGEETLELARLFTTNILQKKLDDERNELLIMDDYLRTLIRHSLDLPLYWRVQRPSARWFIEAYATRSDMNPIMLELAKLDFNIVQATHQEELKQVSRWWKESRLAEKLPFARDRVVENYLWNRGMLFPPQYGYPRIMNAKLFVLITVLDDIYDVYGTLEETQLFTNLITRWDVEAIGQLPEYMRICYMAIDNNINELAYEVLKQHGLLIIQDLRKFWADLCVAYGKEAEWYYTGYKPTLEEYLEVAWVSISAHLILGYMFFLTSNPIEKEASQSLSNYHNIIRNSAMVLRLADDLGTSPYEMQRGDVPKAVECYMNENGASTEEAREYVKHLLREVWKETNGERFKESPFTPSFMRICADLGRMAQFMYQ
notes: C-terminal truncation, residues 578-602 deleted; E. coli, Talon resin, thrombin-cleaved
As for B5, in series [5], the Km worked out at 14.83 ± 1.09 µM and the kcat is 0.195 ± 0.0143 s⁻¹.
